Results on 18 sequences are retold here after the DeepSol protein solubility set.

A short description of the data set: soluble on expression in E. coli; label from the status in PepcDB or PDB records.
With “MSLGKATGFMEYDRIPSPGRDPKSRTRDWNEYSLPMPVADLTLQAARCMDCGVPFCSVGMEIKNGVSGCPLHNLIPEWNDAVYRGDWYEALQLLLKTNNFPEFTGRICPAPCEGGCTVAISEPAVGIKSIEKAIIDRGFEEGWIKPQPPKKRTGKRIAVIGSGPAGLACADQLNKAGHSVTVIEKSDRIGGLLMYGIPTMKLEKEQVTRRVNLMAEEGIEFVTGVAAGTDVTFAELRAEYDSIVLATGAGNARDIPLAGRDAAGIHFAVPYLTQSTRDNLDNGGVQTLSAKDKNVVIIGGGDTGADCVATALRQGAKSIYQFGIQDKLPELRNGENPWPQYPRVFKMDYAHEEAEAVYGRDPREYLINTTSFEKDAAGNLVGLHTVEVTEDKETRQYTPVEGSEKYFEVDMVLIAIGFSGTTEDIFTNFGVGKTERHTIDAAKGFYRTSEEGVFACGDARHGQSLVVTAIAEGREAAREVDFYLMGETFLEGHHHHHH”, the “soluble on expression in E. coli” value is “soluble”.
The same measure for “MAHHHHHHMSVSVTEHRHGDMHHGTMRRRCLTRVLLAGPQGDLEALVSRMPRTWSLQQPLEMLQPEAVEEERANTASAAAATRTENAGLAGGKVPDKSAASVMISYSPVRATLPLAAAASEEERAEEDVVDVVAAVEEKAAMKADLHNSSGSAVEPPSLEGTPNVRLHAAQAPHEEQQEEGDCGVVVAHEAPALTEDGIPGADSAVVRAAEVAATLDIGSQLAEAAPCADRASLDSSAALPVSQVPE”: “not soluble”; for “MGSDKIHHHHHHMDIAMVYSDRLLSPQIPPSRKLRVLKEVEIRLIEGEEQEVEELIMQIHSEEYFSRIRSHPFFENAVENVKCILTGLKALKDYDAVIVPVTTAGHLAEQSRMRGYCLLNGLAIAVKAAESYGRIAVIETDAHHGKASIVSEERATFFCIGRRECEISEDLRCVLGRRMGKDYVKSFEELVERVKEYDPNLVIWYLGLDLDSREYAEMPFGREEWEKLVKNFMKMAEGRKSLIMLALGLRDDVLKDIVGLFAGW”: “not soluble”; for “MMIKIAVVGSKEFMENLFPIAQKLEGIEIDPYIYLHPAESSELLKCLKPCDVIFFSGALPYYMAKEIREQLRIPSTYLQQDETTVASSILSIMYHQSIQPHNISIDLVDRSFITNVFHDIGIKESPQVLDYENMLWSKDEINRVIDFHVAKYQYGEAHLALTSIHAVYDELQKIGIPSERMIDPTQSIIHGLKDAKIKAELAKSYSATVGACIISSLELRASLLEKLDVISKELRGSFKQVDEMTCILYTTRGDIESIIKTNAIDNLFASIEGTIAIGFGYGKTVKEAEQNAKIAQSFAKNYPIDRCFYILASDKDLFGPFPKEQRVQSLKNDNPELMKIAKETKLSPANLSKIIQFSQSHPSLKFTAADLSEYLQVTRRSTERLLKKLVDYGYAHICGEEMPYQQGRPRALYELNFPLFLSF”: “not soluble”.
Regarding “MDFISSLIVGCAQVLCESMNMAERRGHKTDLRQAITDLETAIGDLKAIRDDLTLRIQQDGLEGRSCSNRAREWLSAVQVTETKTALLLVRFRRREQRTRMRRRYLSCFGCADYKLCKKVSAILKSIGELRERSEAIKTDGGSIQVTCREIPIKSVVGNTTMMEQVLEFLSEEEERGIIGVYGPGGVGKTTLMQSINNELITKGHQYDVLIWVQMSREFGECTIQQAVGARLGLSWDEKETGENRALKIYRALRQKRFLLLLDDVWEEIDLEKTGVPRPDRENKCKVMFTTRSIALCNNMGAEYKLRVEFLEKKHAWELFCSKVWRKDLLESSSIRRLAEIIVSKCGGLPLALITLGGAMAHRETEEEWIHASEVLTRFPAEMKGMNYVFALLKFSYDNLESDLLRSCFLYCALFPEEHSIEIEQLVEYWVGEGFLTSSHGVNTIYKGYFLIGDLKAACLLETGDEKTQVKMHNVVRSFALWMASEQGTYKELILVEPSMGHTEAPKAENWRQALVISLLDNRIQTLPEKLICPKLTTLMLQQNSSLKKIPTGFFMHMPVLRVLDLSFTSITEIPLSIKYLVELYHLSMSGTKISVLPQELGNLRKLKHLDLQRTQFLQTIPRDAICWLSKLEVLNLYYSYAGWELQSFGEDEAEELGFADLEYLENLTTLGITVLSLETLKTLFEFGALHKHIQHLHVEECNELLYFNLPSLTNHGRNLRRLSIKSCHDLEYLVTPADFENDWLPSLEVLTLHSLHNLTRVWGNSVSQDCLRNIRCINISHCNKLKNVSWVQKLPKLEVIELFDCREIEELISEHESPSVEDPTLFPSLKTLRTRDLPELNSILPSRFSFQKVETLVITNCPRVKKLPFQERRTQMNLPTVYCEEKWWKALEKDQPNEELCYLPRFVPN”, the “soluble on expression in E. coli” value is “not soluble”.
The same measure for “MAHHHHHHMGKHIRILKNQYLQFMSKRCIQSKAAFNICGKINVENPIVELDGDEMTRIIWKDIKEKLILPYVNLKIKYFDLSIENRDKTNDQVTIEAAEEIKKTSVGIKCATITPDAARVKEFNLKEMWKSPNGTIRNILDGTVFRTPILIKNIPKLVPNWKKPIVIGRHAYADQYKQKSLKIEKSGKFEIVFTPDDNSQVLRETVFHFKSPGVCLGMYNTEESIRNFALSCFQYALDLKMPVYMSTKSTILKIYDGLFKDIFDEIYEKQFKKSFEQHNLWYEHKLIDDMVAQVLKSEGGFLWACKNYDGDIQSDAVAQGYGSLGLMSSVLLCPDGVTCVSEAAHGTVTRHYRAYQKGEKTSTNPIASIFAWTKGLEHRAKLDKNDNLKQFCYALEKACIETVEDGLMSKDLAGCIKGIKNVTEKDYIFTQDLINAINEKLKLKILQNQSKNDPQATSYKLKNDNWNFYAPQEHST”: “not soluble”; for “GMAEDQTVLAIDIGGSHVKIGLSTDGEERKVESGKTMTGPEMVAAVTAMAKDMTYDVIAMGYPGPVVHNKPLREPVNLGEGWVGYDYEGAFGRPVRIVNDALMQAIGSYNGGRMLFLGLGTGLGAAMIVENVAQPMEIAHLPYRKGKTYEHYVSEAYREKKGNAKWQKRVQDVVERLSAALEPDEVVIGGGNVERLENLPPKCRRGDNAMAFEGGFRLWKNADLIV”: “soluble”.
In the case of “MGSDKIHHHHHHMLIHICCSVDNLYFLKKAKEAFAGEKIVGFFYNPNIHPYSEYLLRLEDVKRTCEMLGIELLEGDYELEKFLDKAKGKELLGEKSERCFECFDLRLEASALKAFELGEEKFTTTLLTSPKKDPNQLIAKGQHIAQRHNLEFVVFRNDNFEHFKSELDLNLQALARENELYRQNYCGCQFALKIQKESQNRSPFELYSPLKRQILPASIEERTQVFRELDAAKKDANKPFLAQKTIATYRLLNGGVWLSKNSNPLDCCILARSKSKAKVRINDLRWVFSQRLSALVGYSQRDETLFLTLEGLNTLMAKNYDNLKELNLNPLSYEEELSLRALVSGSESINPIIVLEERTEKTLFVEIKSIFQEEKVFYLL”, the “soluble on expression in E. coli” value is “not soluble”.
With “MTSELKNNEEDYNSSSDEDYDPTKDTDFDPKDEIDDQEECEDGIDEEVEHLKNEKQSDDHTSEKANSTEGSVDVDAIFAELTGLAPKPVVNDTSSKNIPKTEERVYPKSAASASNESTNQKVYPKKTETAGTSSESSIVPGKKRVGLLDAAKSLSKRSKISVLEKSDRDWKDFTTQNNLKEDLESHNRGKGGYLNKMDFLNRADNRQFEKERAFRATARKDTGQ”, the “soluble on expression in E. coli” value is “not soluble”.
Regarding “NLVNFHRMIKLTTGKEAALSYGFYGCHCGVGGRGSPKDATDRCCVTHDCCYKRLEKRGCGTKFLSYKFSNSGSRITCAKQDSCRSQLCECDKAAATCFARNKTTYNKKYQYYSNKHCRGSTPRC”, the “soluble on expression in E. coli” value is given as “soluble”.
With “DDKLRIGGTALFKRDRFVDNIGIEDSFFLKLMVDEMKQTTHQFQIDEDGEKAYVVVEKIFSSFNREMTGSMEAPHFRCHIHFRGEITDYTGPLTLTKDETMNKIEEGMARQIETKGEELLKRFQSLGIDPVGLGEKYRSHTRDWKPGVWHDSIYEQATVEVTAEVEIVQSGVTE” the entry was “not soluble”; with “MTNKDIYKNNPLHGTSLETVLTTLVDHYGFEILAAYMNLNCFKQNASIESSLKFLKKTQWAQEKVEAFYMYQYNSLPKADDANFELPPRDRIVPSGLEQRPPKELSLDDAEELRIKQAKKTRERAAAATSANPWGSRLEHHHHHH”, “not soluble”.
In the case of “KSKLGSKLNLIRNYKNLGITLNYKNGFKNCKGEYIAVLEGDDYWIQKSKLKRQVSFLESNRDCSLVFNKIVLDYGDEKINNLIYPFNDIRKKFSARELVRSNFIQNFSCCMYRKSSIRKLRESIYDMVVYDWMFNMAVAQFGLIGYIPNYMTSHRILKSGLWSGKSKMENLQMISKCIDQYDSFFKYKYRKEFSQNKQEVLQALRRLVMVNENG”, the “soluble on expression in E. coli” value is on record as “not soluble”.
In the case of “MKPTNKAQDDDAVFALSTEVNHKLDLHQSSAEALRLAGVYTRQSCVLDLYHGYRSDDEDTEPDEEDGRLQTVREYHENGMLKLMRTFVRRLRRDATDPTAESSYYDRVVEEKHYDPSGICRVDMHFALGQPYLYRKHYYPNNRLKSEKVFFVEDEETMRARKVGHWRTYYENGNIQSEIIYNKDGVRCGFCKRYAIDGAIEWVKDYTREQEERLQAFNAKRGNLDLTVTDAARVLGLEGDWCSHVVNRTFRSKCAPLHPDWRRTAGDKAGETWEEEQRTEAFIRLSRAREVLLKFLETHPRECSCERGGA”, the “soluble on expression in E. coli” value is listed as “not soluble”.
Turning to “MAHHHHHHMPLRIGGFNVCCYHDCTNAAAIHAELKRRHIDAAVVDHAFLISPLQLAVALFRVEGSADMLTTRSPFTISPPLAEASSPSPTSTSASPSLPPLLQQQPTRRVSNSRQIFAALSLSHNLDRILQVLPPGPQTTSVVIIYKRSGSARAAAVSFADDVGADSAVASTVPDGDGLDATINACVQLTNSAAQAHTFALITEPFWTGAAFAFADVSKVALFYGISESMLLAAQRSMTRADVRRVCVGAESQEAPAQVLRWHALEVCVTTLLSACTA”, the “soluble on expression in E. coli” value is listed as “soluble”.
On to “MSEQPASLDPVSKQIIEQLQEDGRRSYSAIGKVVGLSEAAVRQRVQKLIDTGVTQIVAVTDPVQVGFSRQAMVGIRCSGDVTEIAARLADVDAIDYVVLTAGAYDILAEIVCENDDHLLAVLNKEIRTIPGVLGTETMVYLKLVKQQYDWGTR”, for which the “soluble on expression in E. coli” value was “not soluble”.
As for “MSLAGTFAIAPTPFHDDGKIDDVSIDRLTDFYAEVGCEGVTVLGILGEAPKLDAAEAEAVATRFIKRAKSMQVIVGVSAPGFAAMRRLARLSMDAGAAGVMIAPPPSLRTDEQITTYFRQATEAIGDDVPWVLQDYPLTLSVVMTPKVIRQIVMDSASCVMLKHEDWPGLEKITTLRGFQKDGSLRPLSILCGNGGLFLDFEMERGADGAMTGYCFPDMLVDVVKLSKAGQRDLAHNLFDAHLPLIRYEHQQGVGLSVRKYVLKKRGLLSSSAQRKPGASLTDTAREEVDYLLSRLARVEGHHHHHH”, the “soluble on expression in E. coli” value is on record as “not soluble”.
In the case of “MATPFDGSNDATESRLLQLGRERLDPILAQQSDALQTQLSNQGIKLGSAAYDRAMTQQALHANDATDQLILQGHGQAFAEGQAIRNQPINEITALLSGSQVSNPQAAAYTPSTIPTTDNAGIIANNYQQKMDAYNAQMSQASSLAGGLFGLGGKLISLSDDDAKKDKERLADITPEMGLWKFHYKGEPADAPMRLGLMASEVEKVRPDAVSRRPDGYRQVDYGKALSLGALEHHHHHH”, the “soluble on expression in E. coli” value is given as “not soluble”.
